T1: mouse RANK extracellular domain (mouse, UniProt O35305 31-214)
T1 construct: RANK, mouse, extracellular domain (plasmid pET28a-mRANK); also called mRANK; mRANK ectodomain; source: plasmid pET28a-mRANK
T1 sequence (looked up): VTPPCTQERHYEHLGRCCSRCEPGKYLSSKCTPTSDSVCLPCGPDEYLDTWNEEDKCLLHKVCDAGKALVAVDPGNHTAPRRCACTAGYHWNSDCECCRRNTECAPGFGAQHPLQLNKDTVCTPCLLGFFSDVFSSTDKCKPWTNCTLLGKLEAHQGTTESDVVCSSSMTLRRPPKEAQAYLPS

T2: human RANKL ectodomain (residues 158-317) Arg223Ala (human, UniProt O14788 158-317, Arg223Ala)
T2 sequence: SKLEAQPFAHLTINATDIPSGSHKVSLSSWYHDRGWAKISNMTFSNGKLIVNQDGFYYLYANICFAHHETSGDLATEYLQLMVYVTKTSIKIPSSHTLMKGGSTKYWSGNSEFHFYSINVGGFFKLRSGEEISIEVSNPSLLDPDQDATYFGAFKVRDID

T3: human RANKL ectodomain (residues 158-317) Asp300Ala (human, UniProt O14788 158-317, Asp300Ala)
T3 sequence: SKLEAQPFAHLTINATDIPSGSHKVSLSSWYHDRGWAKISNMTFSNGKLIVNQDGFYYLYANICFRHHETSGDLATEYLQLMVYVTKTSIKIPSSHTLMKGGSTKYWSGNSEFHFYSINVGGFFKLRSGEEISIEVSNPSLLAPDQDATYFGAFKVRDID

T4: human RANKL ectodomain (residues 158-317) Arg223Ala plus Asp300Ala (human, UniProt O14788 158-317, Arg223Ala | Asp300Ala)
T4 sequence: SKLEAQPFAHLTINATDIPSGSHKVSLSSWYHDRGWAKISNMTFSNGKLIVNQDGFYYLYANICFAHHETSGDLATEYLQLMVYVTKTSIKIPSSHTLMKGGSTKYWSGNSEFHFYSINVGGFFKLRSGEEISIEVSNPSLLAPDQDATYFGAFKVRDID


Legend:
[1] = biological target: T1, mouse RANK extracellular domain; test: SPR; Biacore 3000; NTA sensor chip charged with 0.3 M NiSO4, mRANK (50 nM, 15 ul) loaded; hRANKL or mutants injected at 0, 0.47, 0.94, 1.88, 3.75, 7.5, 15 and 30 nM; BIAevaluation 4.1; conditions: both partners purified
[2] = biological target: the molecule itself; test: crystal structure; hRANKL and mRANK mixed 1:1 in 0.1 M Tris pH 7.0, 10 mg/mL; sitting drop at 294 K, microseeded with crushed mRANKL-mRANK crystals; 2.8 Å, space group P63
[3] = biological target: the molecule itself; test: cross-linking; DSS to protein 0:1, 5:1, 10:1 and 20:1, in PBS pH 7.3, on ice 1 hour, stopped with 50 mM Tris pH 7.5; SDS-PAGE
[4] = biological target: T2, human RANKL ectodomain (residues …); test: SPR
[5] = biological target: T3, human RANKL ectodomain (residues …); test: SPR
[6] = biological target: T4, human RANKL ectodomain (residues …); test: SPR

Row | Kd [1] | fold decrease in affinity against wild-type hRANKL [1] | Binder | also measured
1 | 0.156 nM | – | human RANKL ectodomain (residues 158-317), wild type (ligand, UniProt O14788 158-317, looked up, RANKL, human, ectodomain, residues 158-317 (plasmid pGEX-6P-hRANKL); Homotrimer in the crystal structure; also called hRANKL; wild-type hRANKL; source: E. coli BL21, purified (glutathione-Sepharose, PreScission cleavage, Superdex 200); not shown: GST, N-terminal, cleaved) SKLEAQPFAHLTINATDIPSGSHKVSLSSWYHDRGWAKISNMTFSNGKLIVNQDGFYYLYANICFRHHETSGDLATEYLQLMVYVTKTSIKIPSSHTLMKGGSTKYWSGNSEFHFYSINVGGFFKLRSGEEISIEVSNPSLLDPDQDATYFGAFKVRDID | stoichiometry N [2]: 3
2 | – | 260 fold | human RANKL ectodomain (residues 158-317) Arg223Ala plus Asp300Ala (ligand, UniProt O14788 158-317, looked up, RANKL, human, ectodomain, residues 158-317, with Arg223Ala and Asp300Ala (mutant of pGEX-6P-hRANKL); Trimeric by chemical cross-linking; also called hRANKL double-site mutant; source: E. coli BL21, purified (glutathione-Sepharose, PreScission cleavage, Superdex 200); not shown: GST, N-terminal, cleaved) SKLEAQPFAHLTINATDIPSGSHKVSLSSWYHDRGWAKISNMTFSNGKLIVNQDGFYYLYANICFAHHETSGDLATEYLQLMVYVTKTSIKIPSSHTLMKGGSTKYWSGNSEFHFYSINVGGFFKLRSGEEISIEVSNPSLLAPDQDATYFGAFKVRDID | stoichiometry N [3]: 3
3 | – | 20 fold | human RANKL ectodomain (residues 158-317) Arg223Ala (ligand, UniProt O14788 158-317, looked up, RANKL, human, ectodomain, residues 158-317, with Arg223Ala (mutant of pGEX-6P-hRANKL); source: E. coli BL21, purified (glutathione-Sepharose, PreScission cleavage, Superdex 200); not shown: GST, N-terminal, cleaved) SKLEAQPFAHLTINATDIPSGSHKVSLSSWYHDRGWAKISNMTFSNGKLIVNQDGFYYLYANICFAHHETSGDLATEYLQLMVYVTKTSIKIPSSHTLMKGGSTKYWSGNSEFHFYSINVGGFFKLRSGEEISIEVSNPSLLDPDQDATYFGAFKVRDID | –
4 | – | 70 fold | human RANKL ectodomain (residues 158-317) Asp300Ala (ligand, UniProt O14788 158-317, looked up, RANKL, human, ectodomain, residues 158-317, with Asp300Ala (mutant of pGEX-6P-hRANKL); also called 300 M; source: E. coli BL21, purified (glutathione-Sepharose, PreScission cleavage, Superdex 200); not shown: GST, N-terminal, cleaved) SKLEAQPFAHLTINATDIPSGSHKVSLSSWYHDRGWAKISNMTFSNGKLIVNQDGFYYLYANICFRHHETSGDLATEYLQLMVYVTKTSIKIPSSHTLMKGGSTKYWSGNSEFHFYSINVGGFFKLRSGEEISIEVSNPSLLAPDQDATYFGAFKVRDID | –
5 | – | – | mouse RANK extracellular domain (receptor) VTPPCTQERHYEHLGRCCSRCEPGKYLSSKCTPTSDSVCLPCGPDEYLDTWNEEDKCLLHKVCDAGKALVAVDPGNHTAPRRCACTAGYHWNSDCECCRRNTECAPGFGAQHPLQLNKDTVCTPCLLGFFSDVFSSTDKCKPWTNCTLLGKLEAHQGTTESDVVCSSSMTLRRPPKEAQAYLPS | Kd [4]: 10.7 nM; Kd [5]: 2.15 nM; Kd [6]: 39.4 nM
6 | 0.068 nM | – | mouse RANKL (ligand, RANKL, mouse; the text names the ectodomain in general as residues 161-316 of mRANKL; also called mRANKL) KPEAQPFAHLTINAASIPSGSHKVTLSSWYHDRGWAKISNMTLSNGKLRVNQDGFYYLYANICFRHHETSGSVPTDYLQLMVYVVKTSIKIPSSHNLMKGGSTKNWSGNSEFHFYSINVGGFFKLRAGEEISIQVSNPSLLDPDQDATYFGAFKVQDID | –

Source: PMC4585926, “A RANKL mutant used as an inter-species vaccine for efficient immunotherapy of osteoporosis” (Scientific Reports, 2015)
